{"source": "IntAct's records for PubMed 17113272", "parents": {"B1": {"name": "Armadillo segment polarity protein (Drosophila melanogaster (Fruit fly)), P18824 (parent)", "chain": "MSYMPAQNRTMSHNNQYNPPDLPPMVSAKEQTLMWQQNSYLGDSGIHSGAVTQVPSLSGKEDEEMEGDPLMFDLDTGFPQNFTQDQVDDMNQQLSQTRSQRVRAAMFPETLEEGIEIPSTQFDPQQPTAVQRLSEPSQMLKHAVVNLINYQDDAELATRAIPELIKLLNDEDQVVVSQAAMMVHQLSKKEASRHAIMNSPQMVAALVRAISNSNDLESTKAAVGTLHNLSHHRQGLLAIFKSGGIPALVKLLSSPVESVLFYAITTLHNLLLHQDGSKMAVRLAGGLQKMVTLLQRNNVKFLAIVTDCLQILAYGNQESKLIILASGGPNELVRIMRSYDYEKLLWTTSRVLKVLSVCSSNKPAIVDAGGMQALAMHLGNMSPRLVQNCLWTLRNLSDAATKVEGLEALLQSLVQVLGSTDVNVVTCAAGILSNLTCNNQRNKATVCQVGGVDALVRTIINAGDREEITEPAVCALRHLTSRHVDSELAQNAVRLNYGLSVIVKLLHPPSRWPLIKAVIGLIRNLALCPANHAPLREHGAIHHLVRLLMRAFQDTERQRSSIATTGSQQPSAYADGVRMEEIVEGTVGALHILARESHNRALIRQQSVIPIFVRLLFNEIENIQRVAAGVLCELAADKEGAEIIEQEGATGPLTDLLHSRNEGVATYAAAVLFRMSEDKPQDYKKRLSIELTNSLLREDNNIWANADLGMGPDLQDMLGPEEAYEGLYGQGPPSVHSSHGGRAFHQQGYDTLPIDSMQGLEISSPVGGGGAGGAPGNGGAVGGASGGGGNIGAIPPSGAPTSPYSMDMDVGEIDAGALNFDLDAMPTPPNDNNNLAAWYDTDC", "partner": "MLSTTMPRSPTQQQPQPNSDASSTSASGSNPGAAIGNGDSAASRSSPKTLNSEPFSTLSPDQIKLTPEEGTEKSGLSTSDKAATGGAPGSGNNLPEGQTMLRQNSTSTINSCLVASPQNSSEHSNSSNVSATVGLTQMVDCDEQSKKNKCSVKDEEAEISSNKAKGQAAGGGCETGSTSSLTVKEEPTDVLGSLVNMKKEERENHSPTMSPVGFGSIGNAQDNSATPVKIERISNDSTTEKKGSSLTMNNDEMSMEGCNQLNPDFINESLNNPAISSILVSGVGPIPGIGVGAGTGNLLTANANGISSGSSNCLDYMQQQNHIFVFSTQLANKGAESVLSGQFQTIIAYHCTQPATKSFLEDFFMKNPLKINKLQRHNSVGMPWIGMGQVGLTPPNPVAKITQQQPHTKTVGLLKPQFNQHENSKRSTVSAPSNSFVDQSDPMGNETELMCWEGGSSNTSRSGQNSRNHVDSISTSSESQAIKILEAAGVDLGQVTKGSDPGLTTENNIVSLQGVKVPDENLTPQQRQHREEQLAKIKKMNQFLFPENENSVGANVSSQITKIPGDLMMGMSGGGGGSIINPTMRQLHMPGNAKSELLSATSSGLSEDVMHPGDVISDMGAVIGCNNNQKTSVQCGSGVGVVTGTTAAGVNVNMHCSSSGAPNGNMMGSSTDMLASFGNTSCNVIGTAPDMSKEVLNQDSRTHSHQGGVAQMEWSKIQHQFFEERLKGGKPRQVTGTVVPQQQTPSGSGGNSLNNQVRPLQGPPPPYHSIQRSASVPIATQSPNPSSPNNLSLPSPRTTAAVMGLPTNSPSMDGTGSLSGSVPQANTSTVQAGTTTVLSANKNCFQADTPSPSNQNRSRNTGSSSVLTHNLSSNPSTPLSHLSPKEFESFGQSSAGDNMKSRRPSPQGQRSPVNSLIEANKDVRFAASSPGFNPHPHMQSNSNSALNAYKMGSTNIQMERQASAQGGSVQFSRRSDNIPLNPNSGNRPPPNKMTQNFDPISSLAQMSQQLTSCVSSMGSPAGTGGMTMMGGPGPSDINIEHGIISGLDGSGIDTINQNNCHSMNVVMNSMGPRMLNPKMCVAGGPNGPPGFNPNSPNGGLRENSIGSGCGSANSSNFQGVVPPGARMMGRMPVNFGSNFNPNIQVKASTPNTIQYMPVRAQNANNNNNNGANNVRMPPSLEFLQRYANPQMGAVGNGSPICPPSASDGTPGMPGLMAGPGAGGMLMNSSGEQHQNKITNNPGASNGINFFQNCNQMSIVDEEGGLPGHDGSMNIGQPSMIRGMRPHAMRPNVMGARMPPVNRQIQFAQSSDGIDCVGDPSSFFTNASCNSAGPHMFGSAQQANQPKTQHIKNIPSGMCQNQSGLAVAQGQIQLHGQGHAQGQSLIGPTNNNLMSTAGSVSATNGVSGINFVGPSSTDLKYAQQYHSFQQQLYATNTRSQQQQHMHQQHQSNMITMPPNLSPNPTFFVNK"}, "B2": {"name": "Catenin beta-1 (Mus musculus), Q02248 (parent)", "chain": "MATQADLMELDMAMEPDRKAAVSHWQQQSYLDSGIHSGATTTAPSLSGKGNPEEEDVDTSQVLYEWEQGFSQSFTQEQVADIDGQYAMTRAQRVRAAMFPETLDEGMQIPSTQFDAAHPTNVQRLAEPSQMLKHAVVNLINYQDDAELATRAIPELTKLLNDEDQVVVNKAAVMVHQLSKKEASRHAIMRSPQMVSAIVRTMQNTNDVETARCTAGTLHNLSHHREGLLAIFKSGGIPALVKMLGSPVDSVLFYAITTLHNLLLHQEGAKMAVRLAGGLQKMVALLNKTNVKFLAITTDCLQILAYGNQESKLIILASGGPQALVNIMRTYTYEKLLWTTSRVLKVLSVCSSNKPAIVEAGGMQALGLHLTDPSQRLVQNCLWTLRNLSDAATKQEGMEGLLGTLVQLLGSDDINVVTCAAGILSNLTCNNYKNKMMVCQVGGIEALVRTVLRAGDREDITEPAICALRHLTSRHQEAEMAQNAVRLHYGLPVVVKLLHPPSHWPLIKATVGLIRNLALCPANHAPLREQGAIPRLVQLLVRAHQDTQRRTSMGGTQQQFVEGVRMEEIVEGCTGALHILARDVHNRIVIRGLNTIPLFVQLLYSPIENIQRVAAGVLCELAQDKEAAEAIEAEGATAPLTELLHSRNEGVATYAAAVLFRMSEDKPQDYKKRLSVELTSSLFRTEPMAWNETADLGLDIGAQGEALGYRQDDPSYRSFHSGGYGQDALGMDPMMEHEMGGHHPGADYPVDGLPDLGHAQDLMDGLPPGDSNQLAWFDTDL", "partner": "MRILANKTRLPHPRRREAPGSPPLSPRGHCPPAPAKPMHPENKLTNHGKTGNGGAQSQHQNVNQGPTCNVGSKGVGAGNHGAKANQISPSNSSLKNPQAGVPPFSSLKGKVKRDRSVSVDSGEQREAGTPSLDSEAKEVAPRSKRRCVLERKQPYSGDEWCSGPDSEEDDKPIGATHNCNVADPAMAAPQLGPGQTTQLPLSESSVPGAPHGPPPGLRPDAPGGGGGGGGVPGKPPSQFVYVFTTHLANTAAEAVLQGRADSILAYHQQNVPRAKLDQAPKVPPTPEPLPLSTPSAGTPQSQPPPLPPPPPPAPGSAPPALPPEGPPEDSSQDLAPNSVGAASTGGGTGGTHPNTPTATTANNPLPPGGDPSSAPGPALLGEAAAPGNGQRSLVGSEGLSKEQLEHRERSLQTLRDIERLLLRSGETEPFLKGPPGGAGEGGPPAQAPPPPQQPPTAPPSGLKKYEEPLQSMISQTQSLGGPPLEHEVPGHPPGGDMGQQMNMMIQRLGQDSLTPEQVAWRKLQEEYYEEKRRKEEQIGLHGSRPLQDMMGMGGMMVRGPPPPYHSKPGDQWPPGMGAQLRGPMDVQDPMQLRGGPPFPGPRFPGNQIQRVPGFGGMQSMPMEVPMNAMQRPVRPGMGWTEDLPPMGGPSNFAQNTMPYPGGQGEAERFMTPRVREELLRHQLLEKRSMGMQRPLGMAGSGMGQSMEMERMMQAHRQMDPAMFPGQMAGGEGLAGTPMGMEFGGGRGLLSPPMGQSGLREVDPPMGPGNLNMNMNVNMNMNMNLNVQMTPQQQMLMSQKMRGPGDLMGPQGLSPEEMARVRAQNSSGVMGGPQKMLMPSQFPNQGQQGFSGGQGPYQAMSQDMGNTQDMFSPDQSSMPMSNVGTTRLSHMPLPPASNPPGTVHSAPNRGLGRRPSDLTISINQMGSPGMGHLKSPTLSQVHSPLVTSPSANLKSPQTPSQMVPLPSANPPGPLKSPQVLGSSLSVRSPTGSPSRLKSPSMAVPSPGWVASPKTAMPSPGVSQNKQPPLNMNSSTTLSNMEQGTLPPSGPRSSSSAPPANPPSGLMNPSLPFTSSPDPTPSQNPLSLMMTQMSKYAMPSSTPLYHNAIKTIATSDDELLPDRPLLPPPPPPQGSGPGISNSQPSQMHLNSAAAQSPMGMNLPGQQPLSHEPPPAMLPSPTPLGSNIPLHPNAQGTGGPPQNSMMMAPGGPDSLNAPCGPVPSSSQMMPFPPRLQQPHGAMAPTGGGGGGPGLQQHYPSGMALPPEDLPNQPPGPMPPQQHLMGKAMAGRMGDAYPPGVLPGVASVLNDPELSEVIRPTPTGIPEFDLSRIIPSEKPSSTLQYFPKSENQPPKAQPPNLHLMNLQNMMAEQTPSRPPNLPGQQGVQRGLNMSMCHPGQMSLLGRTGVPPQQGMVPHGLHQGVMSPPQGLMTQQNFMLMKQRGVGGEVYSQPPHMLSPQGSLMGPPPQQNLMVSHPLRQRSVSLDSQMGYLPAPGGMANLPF"}, "B3": {"name": "Armadillo segment polarity protein (Drosophila melanogaster (Fruit fly)), P18824 (parent)", "chain": "B1 chain", "partner": "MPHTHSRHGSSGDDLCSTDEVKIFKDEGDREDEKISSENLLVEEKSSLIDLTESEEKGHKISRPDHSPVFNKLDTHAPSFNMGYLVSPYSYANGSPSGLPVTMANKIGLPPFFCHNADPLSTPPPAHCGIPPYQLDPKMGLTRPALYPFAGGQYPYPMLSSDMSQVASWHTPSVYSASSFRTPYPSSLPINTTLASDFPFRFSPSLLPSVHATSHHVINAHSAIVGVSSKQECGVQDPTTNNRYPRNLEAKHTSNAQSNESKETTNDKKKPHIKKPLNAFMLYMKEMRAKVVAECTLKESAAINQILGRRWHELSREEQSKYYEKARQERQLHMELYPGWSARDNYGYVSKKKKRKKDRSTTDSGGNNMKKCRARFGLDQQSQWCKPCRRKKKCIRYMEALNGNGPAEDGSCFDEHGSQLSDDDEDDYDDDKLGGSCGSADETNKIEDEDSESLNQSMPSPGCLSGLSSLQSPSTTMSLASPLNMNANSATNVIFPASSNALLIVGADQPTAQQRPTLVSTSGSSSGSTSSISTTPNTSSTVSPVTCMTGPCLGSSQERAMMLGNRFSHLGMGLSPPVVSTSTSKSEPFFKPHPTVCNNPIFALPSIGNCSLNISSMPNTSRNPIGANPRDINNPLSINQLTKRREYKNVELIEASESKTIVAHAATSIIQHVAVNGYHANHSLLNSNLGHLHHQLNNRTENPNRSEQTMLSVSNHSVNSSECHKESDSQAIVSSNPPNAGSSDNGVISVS"}}, "data": [{"variants_of": "B1", "settings": "with bcl9_drome lgs", "values": [{"variant": "D172A", "effect of a mutation on the interaction": "disrupting interaction"}]}, {"variants_of": "B2", "settings": "with bcl9l_human BCL9L", "values": [{"variant": "D164A", "effect of a mutation on the interaction": "disrupting interaction"}]}, {"variants_of": "B3", "settings": "with pang1_drome pan", "values": [{"variant": "D172A", "effect of a mutation on the interaction": "disrupting interaction"}]}]}
